Bridge positions count the residues as written; N and C are the ends. Square brackets hold non-standard residues; d marks the D form. Ends that are not written are not given here. NMePhe(4-COOH) = CN[C@@H](Cc1ccc(C(=O)O)cc1)C(=O)O; NMePhe(3-Cl) = CN[C@@H](Cc1cccc(Cl)c1)C(=O)O; 3Pal(6-NH2) = Nc1ccc(C[C@H](N)C(=O)O)cn1; NMeW = CN[C@@H](Cc1c[nH]c2ccccc12)C(=O)O; NMeY = CN[C@@H](Cc1ccc(O)cc1)C(=O)O; Nva(3-Et) = CCC(CC)[C@H](N)C(=O)O; NMeF = CN[C@@H](Cc1ccccc1)C(=O)O
B1: 894_3436 (peptide)
peptide: AVXVWNYYIIRRXXC
modifications: as printed: A-V-MeF-V-W-N-Y-Y-I-I-R-R-F3COO(PEG8Me)-MeY-C; linker G-KN3; cyclic (ClAc-Ala1 thioether to Cys15)
B2: 894_0607 (peptide)
peptide: AVXVXNYYIIKRXXC
modifications: not fully specified; as printed: A-V-MeF3C-V-W1Me-N-Y-Y-I-I-K-R-4Py-MeY-C; linker PEG4c; cyclic (ClAc-Ala1 thioether to Cys15)
B3: 894_0616 (peptide)
peptide: AVXVXNYYXIKRYXC
modifications: as printed: A-V-Me3Py-V-MeW-N-Y-Y-Eva-I-K-R-Y-MeY-C; linker PEG4c; cyclic (ClAc-Ala1 thioether to Cys15)
B4: 894_0615 (peptide)
peptide: AVXVXNYYIIKRYXC
modifications: as printed: A-V-Me3Py-V-MeW-N-Y-Y-I-I-K-R-Y-MeY-C; linker PEG4c; cyclic (ClAc-Ala1 thioether to Cys15)
B5: 894_3435 (peptide)
peptide: AVXVWNYYIIXRYXC
modifications: as printed: A-V-MeF-V-W-N-Y-Y-I-I-E(PEG8Me)-R-Y-MeY-C; linker G-KN3; cyclic (ClAc-Ala1 thioether to Cys15)
B6: 894_0602 (peptide)
peptide: AVXVXNXYIIKRYXC
modifications: not fully specified; as printed: A-V-MeF-V-MeW-N-3Py6NH2-Y-I-I-K-R-Y-MeY-C; linker PEG4c; cyclic (ClAc-Ala1 thioether to Cys15)
B7: 894_0619 (peptide)
peptide: {CH2CO}-AV[NMeF]V[NMeW]N[3Pal(6-NH2)]YI[code s]KRY[NMeY]C
modifications: thioether N-15; also: linker PEG4c attached, place not given here
notes: Position 10 is printed as lower-case 's'
B8: 894_0620 (peptide)
peptide: {CH2CO}-AV[NMePhe(3-Cl)]V[NMeW]N[3Pal(6-NH2)]YI[code s]KRY[NMeY]C
modifications: thioether N-15; also: linker PEG4c attached, place not given here
notes: as for B7
B9: 894_0601 (peptide)
peptide: AVXVWNXYIIKRYXC
modifications: not fully specified; as printed: A-V-MeF-V-W-N-3Py6NH2-Y-I-I-K-R-Y-MeY-C; linker PEG4c; cyclic (ClAc-Ala1 thioether to Cys15)

What follows are binders tested against T1, human transferrin receptor (hTfR) (human, UniProt P02786 89-760) (assay: SPR, KD at pH 6.0 over KD at pH 7.4).
T1 construct: Recombinant hTfR; at pH 7.4 captured on the chip by an anti-His tag antibody, at pH 6.0 immobilized on an NTA chip, so it carries a His tag; also called human TfR; TfR1
T1 sequence (P02786 89-760 limits assumed): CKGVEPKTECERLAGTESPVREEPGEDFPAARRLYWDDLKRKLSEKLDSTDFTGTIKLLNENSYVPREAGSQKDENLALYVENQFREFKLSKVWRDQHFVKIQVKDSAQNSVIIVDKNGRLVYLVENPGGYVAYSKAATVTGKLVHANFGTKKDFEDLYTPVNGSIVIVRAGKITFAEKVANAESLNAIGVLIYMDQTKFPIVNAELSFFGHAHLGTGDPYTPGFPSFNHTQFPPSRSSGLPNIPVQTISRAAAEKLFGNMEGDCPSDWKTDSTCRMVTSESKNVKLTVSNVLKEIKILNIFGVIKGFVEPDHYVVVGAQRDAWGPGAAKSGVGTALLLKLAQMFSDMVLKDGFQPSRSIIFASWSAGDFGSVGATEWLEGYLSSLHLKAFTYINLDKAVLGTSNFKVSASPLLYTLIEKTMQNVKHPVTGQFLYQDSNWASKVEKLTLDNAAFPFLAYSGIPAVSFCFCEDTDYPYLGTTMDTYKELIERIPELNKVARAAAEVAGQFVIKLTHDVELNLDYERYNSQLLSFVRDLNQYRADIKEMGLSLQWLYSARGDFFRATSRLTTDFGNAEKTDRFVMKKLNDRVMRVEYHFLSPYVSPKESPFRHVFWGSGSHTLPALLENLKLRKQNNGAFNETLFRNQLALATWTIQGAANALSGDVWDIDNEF

| Binder | dependency KD pH6.0/7.4 |
| --- | --- |
| B1 | 3.36 |
| B2 | 3.74 |
| B3 | 1.22 |
| B4 | 0.92 |
| B5 | 3.55 |
| B6 | 2.97 |
| B7 | 4.57 |
| B8 | 3.26 |
| {CH2CO}-AV[NMeF]V[NMeW]NYY[Nva(3-Et)]IKRY[NMePhe(4-COOH)]C (thioether N-15; not fully specified (C-terminus)) [894_0593] | 2.64 |
| {CH2CO}-AV[NMePhe(3-Cl)]V[NMeW]NYY[Nva(3-Et)]SKRY[NMeY]C (thioether N-15; not fully specified (C-terminus)) [894_0612] | 2.33 |
| {CH2CO}-AV[NMeF]V[NMeW]NYY[Nva(3-Et)]SKRY[NMeY]C (thioether N-15; not fully specified (C-terminus)) [894_0611] | 2.18 |
| B9 | 3.28 |

Each binder was assayed against T1, human transferrin receptor (hTfR) (assay: SPR (Biacore T200), pH 6.0, hTfR on chip).

| Binder | Kd [nM] |
| --- | --- |
| B1 | 6.72 |
| B2 | 2.04 |
| B3 | 50.8 |
| B4 | 15.3 |
| B5 | 41.2 |
| B6 | 18.9 |
| B7 | 126 |
| B8 | 16.2 |
| {CH2CO}-AV[NMeF]V[NMeW]NYY[Nva(3-Et)]IKRY[NMePhe(4-COOH)]C (thioether N-15; not fully specified (C-terminus)) [894_0593] | 9.52 |
| {CH2CO}-AV[NMePhe(3-Cl)]V[NMeW]NYY[Nva(3-Et)]SKRY[NMeY]C (thioether N-15; not fully specified (C-terminus)) [894_0612] | 13.2 |
| {CH2CO}-AV[NMeF]V[NMeW]NYY[Nva(3-Et)]SKRY[NMeY]C (thioether N-15; not fully specified (C-terminus)) [894_0611] | 66.3 |
| B9 | 17.4 |

The binders below were run against T1, human transferrin receptor (hTfR) (assay: SPR, koff at pH 6.0 over koff at pH 7.4).

| Binder | dependency koff pH6.0/7.4 |
| --- | --- |
| B1 | 5.75 |
| B2 | 7.49 |
| B3 | 3.41 |
| B4 | 2.87 |
| B5 | 6.89 |
| B6 | 6.5 |
| B7 | 12.2 |
| B8 | 12.5 |
| {CH2CO}-AV[NMeF]V[NMeW]NYY[Nva(3-Et)]IKRY[NMePhe(4-COOH)]C (thioether N-15; not fully specified (C-terminus)) [894_0593] | 3.72 |
| {CH2CO}-AV[NMePhe(3-Cl)]V[NMeW]NYY[Nva(3-Et)]SKRY[NMeY]C (thioether N-15; not fully specified (C-terminus)) [894_0612] | 6.71 |
| {CH2CO}-AV[NMeF]V[NMeW]NYY[Nva(3-Et)]SKRY[NMeY]C (thioether N-15; not fully specified (C-terminus)) [894_0611] | 4.83 |
| B9 | 8.89 |

These binders were tested against T1, human transferrin receptor (hTfR) (assay: SPR (Biacore T200), pH 7.4, hTfR on chip).

| Binder | Kd [nM] |
| --- | --- |
| B1 | 2 |
| B2 | 0.546 |
| B3 | 41.7 |
| B4 | 16.6 |
| B5 | 11.6 |
| B6 | 6.37 |
| B7 | 27.6 |
| B8 | 4.97 |
| {CH2CO}-AV[NMeF]V[NMeW]NYY[Nva(3-Et)]IKRY[NMePhe(4-COOH)]C (thioether N-15; not fully specified (C-terminus)) [894_0593] | 3.61 |
| {CH2CO}-AV[NMePhe(3-Cl)]V[NMeW]NYY[Nva(3-Et)]SKRY[NMeY]C (thioether N-15; not fully specified (C-terminus)) [894_0612] | 5.67 |
| {CH2CO}-AV[NMeF]V[NMeW]NYY[Nva(3-Et)]SKRY[NMeY]C (thioether N-15; not fully specified (C-terminus)) [894_0611] | 30.4 |
| B9 | 5.3 |
